Test results from PMC5146279, “Atomic structure of the innexin-6 gap junction channel determined by cryo-EM” (Nature Communications, 2016).

How the values were obtained:
[1] = target: the molecule itself; assay: cryo-EM structure; INX-6 gap junction channel by single-particle analysis, 35,608 particles, D8 symmetry, 3.6 Å; sample after GraDeR, 10 mM Tris pH 7.5, 500 mM NaCl
[2] = target: the molecule itself; assay: cryo-EM structure; INX-6 hemichannel (docked class) by single-particle analysis, 74,398 particles, C8 symmetry, 3.3 Å; sample after GraDeR, 10 mM Tris pH 7.5, 500 mM NaCl

B1: Caenorhabditis elegans innexin-6 (INX-6) wild type (natural protein, UniProt Q9U3N4 1-389, looked up)
chain: MASQVGAINSVNALISRVFVQPKGDLADRLNSRVTVVILAVSSALLLSSHFIGDPITCWTPAQFNAQWVNFVNQYCFVHGTYFVPLDQQLAFEEEERTKVSIQYYQWVPYVFALQAFLFYIPRFIWKAMIAYSGYDLAAAVKYVDRFWSENRDKDDKFKTRLAAFEGRPSVYIWDGIRLARKKRSRNMALFYTLSTVWQAVNAWIQFYILTQLLDSSIYTLWGPSILGDLLQGNDWQTTGHFPRIVHCDFNRRRPASVQLDTVLCVLTLNIYYEKLFIFLWFWLVFVAVVSTVNCFKWIYYLCNKTKAQKTIKNYLSTAPIKSTISDDQFFSALGEDGLFIMDQMALNLGDIPASYLTISMRNICQDFIESEDYIDEERTPFVKSIKHT
notes: Innexin-6 (INX-6), C. elegans, wild type; Eight copies form a hemichannel and 16 copies the docked gap junction channel; also called INX-6 WT; INX-6 hemichannel; source: Sf9 cells infected with recombinant virus, purified (Ni-NTA, tag digested, gel filtration, GraDeR); not shown: GFP, C-terminal, cleaved; His8, C-terminal, cleaved; copies: 16
stoichiometry N [1]: 16 | stoichiometry N [2]: 8
